# B1: TPR t1 (parent)
# chain: GACCAAUCUGCCCUCAGAGCUCGAGAACAUCUUCGGAUGCAGAGGAGGCAGGCUUCGGUGGCGCGAUAGCGCCAACGUCCUCAACCUCCAAUGCAUCCCACCACAUGAUGAUGCCUGAAGAGCCUUGGUUUUUUG
# Variants of: B1
# Experiment: polymerase ribozyme fitness, log enrichment relative to wild type (log ratio); higher = more active; in vitro selection for triplet polymerase activity
# Method in brief: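 Streptavidin-bead capture of gel-excised extended constructs, followed by RT-PCR, closed a single triplicate in vitro selection round. That round began by annealing PCR-built, transcribed mutant libraries of each subunit of a heterodimeric triplet polymerase ribozyme with a biotinylated primer, the partner subunit and triplets, then incubating them frozen at −7 °C. After Illumina sequencing of inputs and outputs, genotypes needed ≥10 input reads and ≥1 read per output. Fitness is the base-2 logarithm of genotype enrichment over wild-type enrichment, using inverse-variance-weighted replicate averages.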
row,Variant,polymerase ribozyme fitness (log ratio)
1,A29U G63U U78C,-4.96
2,A29U G45C U55G C64U G93U U109A G117U,-5.42
3,C31U G120U,-4.56
4,U30C G36C C70G U78C A84C U112G,-6.17
5,C31A G120C,-4.32
6,U32A G58C C94U,-3.96
7,C31U C104U,-4.18
8,C31U G44U,-5.33
9,A29U G69U U116C G117C,-1.83
10,A29G C85G C88U,-2.58
11,A29G U112A,0.263
12,U32A G44A G63C U87C,-4.85
13,U30C G113C,-3.49
14,A29U U112A U126G,-2.25
15,U32A C101U,-4.58
16,A29U A66G,-3.28
17,C31U C53U C72U A103U,-6.73
18,C31A G45C C49U G69U C82U G107A,-5.05
19,C31G C72G,-6.27
20,C31U G60A G71A U78G C101U G110U U125A,-6.74
21,A29U G44A C101U,-4.87
22,A29G C123U,-0.36
23,A29G C123G,0.246
24,C31G G61U,-6.02

row,Variant,polymerase ribozyme fitness (log ratio)
1,A29U C62A U112C G127C,-3.28
2,A29G G51U C62U C82G,-4.8
3,A29U G113C,-2.87
4,A29U C124U U131A,-0.63
5,A29U G44A G110A U125A,-3.17
6,U30G G69U U78G,-3.84
7,A29G G44U A50U G69U,-2.04
8,U32A G45A A75U C88U U96C,-5.82
9,C31U A84C C97A A121U,-6.87
10,U32C C49U,-0.805
11,C31G C34U U109G G110C,-6.14
12,C31G G42C A111U,-6.49
13,A29G G61A C99A U112C C124A G135C,-5.36
14,U30A C73U,-5.38
15,A29G U55C G63U U87A G113C,-4.13
16,U30G A43U G45U G47A C49A U106A A119G,-4.24
17,A29U A41G C53G,-2.64
18,U30C G63A C124G,-3.09
19,A29U G52C C73G U132C G135U,-3.19
20,U32C C49G C73G C88G A95C,-5.8
21,A29U U87G A90C,-3.17
22,U30G C34G C40U C73U A91C C114U,-7.29
23,U32A C34A C64U C86G C114A U133C,-5.96
24,U30A C88U,-5.1

row,Variant,polymerase ribozyme fitness (log ratio)
1,A29U G69C U81G U87G,-3.43
2,C31A A118U,-5.02
3,U32C C56A U116G G122A U132C,-3.25
4,C31U G61A C123G,-3.22
5,C31G G71U C94G A121G U132C,-7.12
6,A29G U109C,0.997
7,U30C U54A,-2.81
8,U30C A41G U78A A91G A108G,-2.61
9,U30A G39C,-5.36
10,U30C C72U U87A U112A,-2.41
11,A29U A37U G60U C89U,-3.5
12,U30C C56G C70G U109A,-5.1
13,A29U G60C,-2.06
14,C31G C53G A90U G113A,-6.88
15,C31A U106G G107U,-1.91
16,C31U G71U,-4.09
17,C31G C70A,-7.42
18,A29U G45U G120A G128U,-3.92
19,C31G A50U G60C G110C,-6.92
20,C31A C88U A121G,-2.7
21,A29U C56U A84G C97U,-3.9
22,A29U U96G U130C,-2.74
23,U30C C70U C82G,-6.42
24,U32C A46U,-1.51

row,Variant,polymerase ribozyme fitness (log ratio)
1,A29G C79U,-1.06
2,A29G G69A C86A U112A C123G,-3.48
3,A29G U131C,-1.02
4,C31U C73G,-4.48
5,U30C C86A G135C,-4.17
6,A29U G45U C73U A95G U131A,-4.04
7,A29G G107A,-5.6
8,U32A G117A,-5.64
9,C31U C72G G120C,-5.23
10,A29G G60A U109A U112A G122A U130G,-6.7
11,A29U G127U,-3.66
12,A29U G127C,-3.29
13,C31G C73A,-6.15
14,U30A U106A C124G,-2.11
15,C31U G60A G61A C123G,-6.05
16,U30G G69U G120A U126A U131G,-4.39
17,A29U C94U A121U,-0.384
18,A29U U59G U78G G120U G128C U134A,-2.27
19,A29G U59G G60U U130G,-2.01
20,A29G U116A,-3.67
21,U30A G71U,-4.91
22,A29U G58A G71C U112A,-1.32
23,C31U G60A G107A,-1.03
24,C31A A50G U55G G107A C124U,-3.71

row,Variant,polymerase ribozyme fitness (log ratio)
1,A29U C31G C34G G44A G60A C114U,-6.84
2,U32C C40G G45A G47A U54A G61U C88G G110C A111G G117A U125A,-7.2
3,U32A G48C,-5.23
4,A29G G61A,-0.852
5,U30A G52U G60A,-4.07
6,U32A C40U C101A C124A,-3.05
7,A29U G60A U78C C102A U112C,-3.58
8,U32A C49G C123U,-4.37
9,U30G G69C A108C,-0.59
10,A29U C31A G69A C104G G117C A121U,-7.2
11,U30C C49U G63C G77A,-6.71
12,A29U G77U,-1.77
13,A29U U54A G71C,-1.61
14,U32C A41U C89G G93U,-4.07
15,U30A G39C C49A,-5.37
16,C31U U78A A90G,-3.97
17,C31U C49G,-4.41
18,A29U G117A,-3.25
19,A29U G58C G120C C124A,-1.02
20,U32A C88U,-3.8
21,C31A A46U C72A,-5.82
22,C31G C72U A95C G113A,-6.94
23,C31U C123G,-2.99
24,A29U U54G U55G C101U,-4.04

row,Variant,polymerase ribozyme fitness (log ratio)
1,C31U U38C,-5.6
2,A29U C34U,-4.41
3,C31U C89U,-5.93
4,C31U C89G,-5.1
5,A29U U112A,-0.754
6,A29U U112G,-0.993
7,A29U C76A,-1.91
8,A29U C56U G120C G127A,-2.48
9,U30A A121C,-3.22
10,C31U U129G,-5.03
11,C31U U87C U96A G120U,-5.92
12,A29G C97U C101A A103U G120A U133G,-7
13,C31U G36U G61U C82A A111U,-5.16
14,U30C C70U G113C,-3.79
15,A29G U109G C114G,-6.5
16,U32A C114G,-4.17
17,A29G C104A G117C U131C,-6
18,U30C G58C C85G,-3.06
19,A29U G47C A119G,-2.66
20,A29U G47C C85U C123U,-4.09
21,U30G G60C C124U,-5.4
22,A29G G36A C53U U55C G69U G127C,-4.42
23,A29U C40U C49A U106A,-1.76
24,A29U C34U A46U U87G,-5.9

row,Variant,polymerase ribozyme fitness (log ratio)
1,C31G G45C C64G G113U,-5.01
2,C31U C40U G61U G120A,-4.29
3,A29U U81A C82A U87G U112A,-1.91
4,U30C C56A C82U C94U G113C,-5.15
5,U32A G61A C123G,-1.69
6,C31U G61U,-4.59
7,C31U G61A,-3.81
8,U32C C53U C56A A118U,0.16
9,A29G G61A C124A,0.686
10,A29G C115U,-1.56
11,C31A C70A A83C G113U A118G,-6.98
12,C31G C114A,-6.73
13,A29U G42C G113U U129A,-4.15
14,U30G C70G C89A A111G,-7.35
15,A29G G71U A83U,-1.51
16,A29G G60C U106A U109C G117A G127A,-5.43
17,A29U G44U A111G C124G,-3.58
18,U30A A95G A121U,-3.78
19,A29G G45U C73U U78G U87G,-2.9
20,U32A C56G G60C C62A A121C,-6.89
21,C31A U96G A121G,-4.67
22,U32A G47C C53G C86A,-6.08
23,A29G C104U U106G,-1.09

# Source: the RNAGym collection of RNA variant scans (doi:10.1073/pnas.2313332121)
